Reference: publication PMC8654040 (Nature structural & molecular biology, 2021)

T1: FUS SYGQ LC (FUS 1-163), N-terminal low complexity domain (UniProt P35637 1-163)
T1 sequence (looked up): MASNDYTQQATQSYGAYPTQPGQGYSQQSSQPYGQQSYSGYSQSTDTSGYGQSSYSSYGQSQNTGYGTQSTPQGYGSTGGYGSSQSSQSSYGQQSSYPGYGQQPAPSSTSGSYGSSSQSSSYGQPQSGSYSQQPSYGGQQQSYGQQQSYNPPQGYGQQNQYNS


Key:
[1] = biological target: T1, FUS SYGQ LC (FUS 1-163), N-terminal low …; assay: co-sedimentation
[2] = biological target: T1, FUS SYGQ LC (FUS 1-163), N-terminal low …; assay: intermolecular NOE NMR of a condensed phase

Binder | binding result [1] | binding result [2]
488-labeled FUS SYGQ LC (FUS 1-163 labelled with DyLight 488 NHS ester) (domain or fragment, UniProt P35637 1-163, looked up, DyLight 488 (NHS ester labelling)) MASNDYTQQATQSYGAYPTQPGQGYSQQSSQPYGQQSYSGYSQSTDTSGYGQSSYSSYGQSQNTGYGTQSTPQGYGSTGGYGSSQSSQSSYGQQSSYPGYGQQPAPSSTSGSYGSSSQSSSYGQPQSGSYSQQPSYGGQQQSYGQQQSYNPPQGYGQQNQYNS | binds | 
FUS RGG3 (453-507) (domain or fragment, UniProt P35637 453-507, looked up) DGPGGGPGGSHMGGNYGDDRRGGRGGYDRGGYRGRGGDRGGFRGGRGGGDRGGFG |  | binds
